What is called Kd is the free concentration of one partner at which half of the binding sites on the other are occupied at equilibrium, for simple one-to-one binding.

This passage reports Kd results from article PMC10086585, “From netrin‐1‐targeted SPECT/CT to internal radiotherapy for management of advanced solid tumors” (EMBO Molecular Medicine, 2023).

The target in the experiment is T1, human recombinant netrin‐1, on AHC biosensors (human, UniProt O95631 25-604).
T1 construct: netrin-1, human, recombinant; AHC sensors capture human IgG Fc, so an Fc-tagged netrin-1 is surmised; Capture through a human antibody cannot be excluded; It may otherwise be the same protein as m1; also called h‐netrin‐1
Briefly: BLI; netrin-1 on AHC biosensors; analytes at 3.12-100 nM; 30°C, 1,000 rpm; PBS, 0.02% Tween-20, 0.1% BSA; 5 min association, 5 min dissociation. The note with it: both partners purified. Background: BLI is a label-free optical method that tracks binding on a fibre tip over time.

B1: recombinant human vitronectin (natural protein, UniProt P04004 20-478, looked up)
chain: DQESCKGRCTEGFNVDKKCQCDELCSYYQSCCTDYTAECKPQVTRGDVFTMPEDEYTVYDDGEEKNNATVHEQVGGPSLTSDLQAQSKGNPEQTPVLKPEEEAPAPEVGASKPEGIDSRPETLHPGRPQPPAEEELCSGKPFDAFTDLKNGSLFAFRGQYCYELDEKAVRPGYPKLIRDVWGIEGPIDAAFTRINCQGKTYLFKGSQYWRFEDGVLDPDYPRNISDGFDGIPDNVDAALALPAHSYSGRERVYFFKGKQYWEYQFQHQPSQEECEGSSLSAVFEHFAMMQRDSWEDIFELLFWGRTSAGTRQPQFISRDWHGVPGQVDAAMAGRIYISGMAPRPSLAKKQRFRHRNRKGYRSQRGHSRGRNQNSRRPSRATWLSLFSSEESNLGANNYDDYRMDWLVPATCEPIQSVFFFSGDKYYRVNLRTRRVDTVDPPYPRSIAQYWLGCPAPGHL
notes: vitronectin, human, recombinant; also called hVitronectin
Take B1: the equilibrium dissociation constant (Kd) came out at 6.85 nM.

B2: recombinant human glypican‐1 (natural protein, UniProt P35052 24-530, looked up)
chain: DPASKSRSCGEVRQIYGAKGFSLSDVPQAEISGEHLRICPQGYTCCTSEMEENLANRSHAELETALRDSSRVLQAMLATQLRSFDDHFQHLLNDSERTLQATFPGAFGELYTQNARAFRDLYSELRLYYRGANLHLEETLAEFWARLLERLFKQLHPQLLLPDDYLDCLGKQAEALRPFGEAPRELRLRATRAFVAARSFVQGLGVASDVVRKVAQVPLGPECSRAVMKLVYCAHCLGVPGARPCPDYCRNVLKGCLANQADLDAEWRNLLDSMVLITDKFWGTSGVESVIGSVHTWLAEAINALQDNRDTLTAKVIQGCGNPKVNPQGPGPEEKRRRGKLAPRERPPSGTLEKLVSEAKAQLRDVQDFWISLPGTLCSEKMALSTASDDRCWNGMARGRYLPEVMGDGLANQINNPEVEVDITKPDMTIRQQIMQLKIMTNRLRSAYNGNDVDFQDASDDGSGSGSGDGCLDDLCSRKVSRKSSSSRTPLTHALPGLSEQEGQKTS
notes: glypican-1, human, recombinant; also called hGlypican‐1
Regarding B2, the dissociation constant Kd amounted to 15.6 nM.

B3: recombinant human lumican (natural protein, UniProt P51884 19-338, looked up)
chain: QYYDYDFPLSIYGQSSPNCAPECNCPESYPSAMYCDELKLKSVPMVPPGIKYLYLRNNQIDHIDEKAFENVTDLQWLILDHNLLENSKIKGRVFSKLKQLKKLHINHNNLTESVGPLPKSLEDLQLTHNKITKLGSFEGLVNLTFIHLQHNRLKEDAVSAAFKGLKSLEYLDLSFNQIARLPSGLPVSLLTLYLDNNKISNIPDEYFKRFNALQYLRLSHNELADSGIPGNSFNVSSLVELDLSYNKLKNIPTVNENLENYYLEVNQLEKFDIKSFCKILGPLSYSKIKHLRLDGNRISETSLPPDMYECLRVANEVTLN
notes: lumican, human, recombinant; also called hLumican
In the case of B3, the Kd was found to be 15.5 nM.

B4: fibronectin leucine‐rich transmembrane protein (FLRT1), recombinant human (natural protein, UniProt Q9NZU1 49-552, looked up)
chain: IDSTTCPSVCRCDNGFIYCNDRGLTSIPADIPDDATTLYLQNNQINNAGIPQDLKTKVNVQVIYLYENDLDEFPINLPRSLRELHLQDNNVRTIARDSLARIPLLEKLHLDDNSVSTVSIEEDAFADSKQLKLLFLSRNHLSSIPSGLPHTLEELRLDDNRISTIPLHAFKGLNSLRRLVLDGNLLANQRIADDTFSRLQNLTELSLVRNSLAAPPLNLPSAHLQKLYLQDNAISHIPYNTLAKMRELERLDLSNNNLTTLPRGLFDDLGNLAQLLLRNNPWFCGCNLMWLRDWVKARAAVVNVRGLMCQGPEKVRGMAIKDITSEMDECFETGPQGGVANAAAKTTASNHASATTPQGSLFTLKAKRPGLRLPDSNIDYPMATGDGAKTLAIHVKALTADSIRITWKATLPASSFRLSWLRLGHSPAVGSITETLVQGDKTEYLLTALEPKSTYIICMVTMETSNAYVADETPVCAKAETADSYGPTTTLNQEQNAGPMASLP
notes: FLRT1 (fibronectin leucine-rich transmembrane protein 1), human, recombinant; also called hFLRT‐1; FLTR1
Turning to B4, the Kd worked out at 15.5 nM.

B5: recombinant human integrin α6β4 (complex)
chain 1: FNLDTREDNVIRKYGDPGSLFGFSLAMHWQLQPEDKRLLLVGAPRAEALPLQRANRTGGLYSCDITARGPCTRIEFDNDADPTSESKEDQWMGVTVQSQGPGGKVVTCAHRYEKRQHVNTKQESRDIFGRCYVLSQNLRIEDDMDGGDWSFCDGRLRGHEKFGSCQQGVAATFTKDFHYIVFGAPGTYNWKGIVRVEQKNNTFFDMNIFEDGPYEVGGETEHDESLVPVPANSYLGLLFLTSVSYTDPDQFVYKTRPPREQPDTFPDVMMNSYLGFSLDSGKGIVSKDEITFVSGAPRANHSGAVVLLKRDMKSAHLLPEHIFDGEGLASSFGYDVAVVDLNKDGWQDIVIGAPQYFDRDGEVGGAVYVYMNQQGRWNNVKPIRLNGTKDSMFGIAVKNIGDINQDGYPDIAVGAPYDDLGKVFIYHGSANGINTKPTQVLKGISPYFGYSIAGNMDLDRNSYPDVAVGSLSDSVTIFRSRPVINIQKTITVTPNRIDLRQKTACGAPSGICLQVKSCFEYTANPAGYNPSISIVGTLEAEKERRKSGLSSRVQFRNQGSEPKYTQELTLKRQKQKVCMEETLWLQDNIRDKLRPIPITASVEIQEPSSRRRVNSLPEVLPILNSDEPKTAHIDVHFLKEGCGDDNVCNSNLKLEYKFCTREGNQDKFSYLPIQKGVPELVLKDQKDIALEITVTNSPSNPRNPTKDGDDAHEAKLIATFPDTLTYSAYRELRAFPEKQLSCVANQNGSQADCELGNPFKRNSNVTFYLVLSTTEVTFDTPDLDINLKLETTSNQDNLAPITAKAKVVIELLLSVSGVAKPSQVYFGGTVVGEQAMKSEDEVGSLIEYEFRVINLGKPLTNLGTATLNIQWPKEISNGKWLLYLVKVESKGLEKVTCEPQKEINSLNLTESHNSRKKREITEKQIDDNRKFSLFAERKYQTLNCSVNVNCVNIRCPLRGLDSKASLILRSRLWNSTFLEEYSKLNYLDILMRAFIDVTAAAENIRLPNAGTQVRVTVFPSKTVAQYS
chain 2: NRCKKAPVKSCTECVRVDKDCAYCTDEMFRDRRCNTQAELLAAGCQRESIVVMESSFQITEETQIDTTLRRSQMSPQGLRVRLRPGEERHFELEVFEPLESPVDLYILMDFSNSMSDDLDNLKKMGQNLARVLSQLTSDYTIGFGKFVDKVSVPQTDMRPEKLKEPWPNSDPPFSFKNVISLTEDVDEFRNKLQGERISGNLDAPEGGFDAILQTAVCTRDIGWRPDSTHLLVFSTESAFHYEADGANVLAGIMSRNDERCHLDTTGTYTQYRTQDYPSVPTLVRLLAKHNIIPIFAVTNYSYSYYEKLHTYFPVSSLGVLQEDSSNIVELLEEAFNRIRSNLDIRALDSPRGLRTEVTSKMFQKTRTGSFHIRRGEVGIYQVQLRALEHVDGTHVCQLPEDQKGNIHLKPSFSDGLKMDAGIICDVCTCELQKEVRSARCSFNGDFVCGQCVCSEGWSGQTCNCSTGSLSDIQPCLREGEDKPCSGRGECQCGHCVCYGEGRYEGQFCEYDNFQCPRTSGFLCNDRGRCSMGQCVCEPGWTGPSCDCPLSNATCIDSNGGICNGRGHCECGRCHCHQQSLYTDTICEINYSAIHPGLCEDLRSCVQCQAWGTGEKKGRTCEECNFKVKMVDELKRAEEVVVRCSFRDEDDDCTYSYTMEGDGAPGPNSTVLVHKKKDCPPGS
notes: integrin alpha-6, human, recombinant; integrin beta-4, human, recombinant; also called hIntegrin
Take B5: the dissociation constant (Kd) was found to be 0.96 nM.
